PMC3268225 (Biochemical Journal, 2011)

Legend:
GST–eEF2K[1–402]–His6 = molecular target: T1, GST–eEF2K[1–402]–His6 (human, UniProt O00418 1-402); assay: ELISA
T1 sequence: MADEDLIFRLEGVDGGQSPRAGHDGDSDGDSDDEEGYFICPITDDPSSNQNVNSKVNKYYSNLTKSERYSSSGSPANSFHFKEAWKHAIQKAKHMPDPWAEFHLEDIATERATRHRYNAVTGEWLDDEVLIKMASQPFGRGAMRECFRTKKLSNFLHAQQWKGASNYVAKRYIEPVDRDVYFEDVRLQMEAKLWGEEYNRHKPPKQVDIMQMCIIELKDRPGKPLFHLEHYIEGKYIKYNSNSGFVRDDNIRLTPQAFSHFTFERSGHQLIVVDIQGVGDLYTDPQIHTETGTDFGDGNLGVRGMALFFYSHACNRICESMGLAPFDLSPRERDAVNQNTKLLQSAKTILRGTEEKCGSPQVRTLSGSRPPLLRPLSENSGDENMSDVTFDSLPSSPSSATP

His6–Zb–eEF2K[48–336] = molecular target: T2, His6–Zb–eEF2K[48–336] (human, UniProt O00418 48-336); assay: pull-down
T2 sequence: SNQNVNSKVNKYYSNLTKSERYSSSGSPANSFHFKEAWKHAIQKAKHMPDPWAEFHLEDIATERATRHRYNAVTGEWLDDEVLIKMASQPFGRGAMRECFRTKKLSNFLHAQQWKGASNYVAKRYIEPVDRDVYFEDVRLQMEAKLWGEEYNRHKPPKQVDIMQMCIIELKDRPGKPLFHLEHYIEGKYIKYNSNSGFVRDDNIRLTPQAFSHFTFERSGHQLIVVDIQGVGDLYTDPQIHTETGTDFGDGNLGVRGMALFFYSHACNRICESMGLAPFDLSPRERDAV

eEF2K[48–336] = molecular target: T3, eEF2K[48–336] (human, UniProt O00418 48-336); assay: SEC
T3 sequence: T2 sequence

B1: GST–eEF2K[478–725] (domain or fragment)
chain: SGRVCVEKWNLLNSSRLHLPRASAVALEVQRLNALDLEKKIGKSILGKVHLAMVRYHEGGRFCEKGEEWDQESAVFHLEHAANLGELEAIVGLGLMYSQLPHHILADVSLKETEENKTKGFDYLLKAAEAGDRQSMILVARAFDSGQNLSPDRCQDWLEALHWYNTALEMTDCDEGGEYDGMQDEPRYMMLAREAEMLFTGGYGLEKDPQRSGDLYTQAAEAAMEAMKGRLANQYYQKAEEAWAQMEE
GST–eEF2K[1–402]–His6
  binding result: binds

B2: His6–eEF2K[490–725] (domain or fragment)
chain: NSSRLHLPRASAVALEVQRLNALDLEKKIGKSILGKVHLAMVRYHEGGRFCEKGEEWDQESAVFHLEHAANLGELEAIVGLGLMYSQLPHHILADVSLKETEENKTKGFDYLLKAAEAGDRQSMILVARAFDSGQNLSPDRCQDWLEALHWYNTALEMTDCDEGGEYDGMQDEPRYMMLAREAEMLFTGGYGLEKDPQRSGDLYTQAAEAAMEAMKGRLANQYYQKAEEAWAQMEE
His6–Zb–eEF2K[48–336]
  binding result: binds

B3: eEF2K[490–725] (domain or fragment)
chain: B2 chain
eEF2K[48–336]
  binding result: binds
